Results from the DeepSol protein solubility set.

Assay: soluble on expression in E. coli; label from the status in PepcDB or PDB records

| Sequence | soluble on expression in E. coli |
| --- | --- |
| MPPPTASTPDDSADPGPDFADVPPTDLVKVGFIFRPHGLDGELKIDPSATDDPARFEVLPTVFVGPHPRRVVRHDIASVRYQKTKRGITVILGLDGIVDRDDAEAVAKMDVFATEAALGLEDDELFADDLVGWTVVTEEGAVQGTVADFMEMPAQDLFVVRTPEDTEAMIPAIDDFIIEIDEEAERIVVRPIDGLMDALEHHHHHH | not soluble |
| MPQDPRHPEHQYLDLVKHILENGARRMDRTGTGTLSVFGATMRFSLEDNTFPLLTTRRVFYRGVVEELLFFLRGETDSKVLEKKGVRIWEKNGAKQFLQSVGIDREEGDLGPIYGFQWRHFGARYETSASSYEGKGVDQIASAIAAIRANPASRRIVVSAWNPTDLGSMALPPCHVLFQFNVTDGKLSCAMYQRSGDMGLGVPFNIASYSLLTILVAHLTGLQPGEFVHFLGDAHVYLDHVDSLRQQIQRPPRAFPKLFVSPKGPRTEPEHFQYEDFELVGYDPHPAIKMNMSA | soluble |
| MPREESESPLLVYEDPRHTPYTPFKYARKDEEERSSGGGKSPPKKAPKAQDRMSLRDKFEAAPTTKKRKTAQDPADELLQAIKPLFNQVKKEMADQLADQLGRFNEQLDMAVNSFSDEIVKLKADHALAEKNVDTYAQKVSGMFQRADMMSANVQEQRTQQAEDNRMASKARDRIIYDIAQVATNMKTMSETIAKIDAREEQAAQKQAERHTPQGGQGSLEPALKCPLCKRHHAPENCTIIRNGLDRREEAEKIKMCIQCLEVGVTNDDWVHEGCPKEKEQCTRCTKYMKPGEIAQTHHNATFCLMLTSKQYKLERKGSPSDRDYSPKGRRGPIRSRHNRYGG | not soluble |
| MPRGLILATPQLPPDGTPFSARYDDVYHSTEGGLAQAHHVFLGGNGLPGGWQGKRSFTIVETGFGQGLNFLATWAAWRDDPQRCGRLDFVSVEKHPFDRAGLALVHAQEGALASLAEALRQAWPVPVPGVHRLVFDAGRVTLTLMLGDAETLLPQLSCAADAFYLDGFSPAKNPDLWQPGVFKQLARIARGGATLATYTAAGAVRHGLREAGFEVRKAPGFGRKRDMTVAAFPTHWRTRRGPAEAPVWPERHAIVLGAGLAGCSVAERLAARGWRITLIDEHEAPAGGASAHRAAAMHPHVSIDDSVLSRLSRAGNLLARRHWEALDRAGFATGFHPTGVLQLAEHADDAAEQQRIVQALGFPADFIAWLDAARAADRVGAGVPQGGWWFAQAGWVAPPDICRAALAAAGEAVELRWRTRIESLLRHDAGWRACDAQGNVIAHAPVVVLANSLDAVRLAPLASAALKPVRGQLTDVPVAALEDGVPWPRAVVCGDGYLLPRERGAPTVRVGSSFQPGETDPDARTADHAANLRRLAGLQPAHAAALARVDPARLLGYVGVRCVSANRLPLIGAVADEAAIMAPGFRLRGPHAALPRVPGLYAALAYGSRGLTWSVLGAELLAAQIDGGPLPLESELAAALDPGRFLMRALRHGKHAA | soluble |
| MPRKPKRPCSFPGCPELTDGRYCDMHQRQMDAYYNKYERDPQTRKRYDRRWKRIRDRYISEHPLCEECQKYGRLTPAEEVHHIIPLSKGGTNADSNLMSLCKQCHSSITAREGERWARR | not soluble |
| MPRPALRSRSLRRVYVKLPSGKTVIHYERKRNDIAICAICKKPLHGVKTNFLHKYSKSEKRPERPFGGYLCSSCLTQLIKATVRQQLQ | soluble |
| MPRTRVNLQKSEANDRSFTISSLEFCLSQLRKADPNLVKKAIASGDGLTESKNDVSTRLSEAHRYSVQQCLDNSEQLAQLHNQLVHCDNVFERLQATLYSFQDNLGSIGQDMKNLQLQSHHIHQELENRQKVRVELSQFVDDIAVSQTMMKTINDTDANDRGFLEALHELHHKITLILQRGNGDAVAVNDTMPILEGLKLKAVVKVREWLLQKMFQFRKPLSNYQVFQHQLLKCRFFYEFLLHHDLISAKELQDEYIDTISKMFFTYFKAYATRLFKLAMKDVATKEDALGSIDFAKPAGLGAIFSSKQHVVRNKATVFSIGQRHQILSDDFLGALIVPHAVTQNHQSVYLTIELAMARAMSVVLKSCEEQIALSWDAISLHLCICLCDKFTEVLAEREVPEVSDYWNTVTSFLWTRLNLVMSQHYESVKSVDLKKLMHSGSLDARPHFIVRRYAELTSAHLMIAKASGKEMGAKMEAVLENSEDSIEQLLTRMSAMQQTQKNKHVFLINNYDLILSIIDNEESKHTKIYAIVHELEQKSIDDFVEEMLEPHIGYMIKFVNECESLIVQGHTQLLVRYNDKVGTVVANFNAKWRPAVDSINSECIQLFTNFSLGTTILQTIFTKYVQYINRFTKILSHDVFAKNPVCSQLVNVHQVMLEIKRFKPAY | not soluble |
| MPSENPIGKTMKSIDEQSLHNARRLFESGDIDRIEVGTTAGLQQIHRYLFGGLYDFAGQIREDNISKGGFRFANAMYLKEALVKIEQMPERTFEEIIAKYVEMNIAHPFLEGNGRSTRIWLDLVLKKNLKKVVNWQNVSKTLYLQAMERSPVNDLELRFLLKDNLTDDVDNREIIFKGIEQSYYYEGYEKG | soluble |
| MPSGYGVLLATHDDDTVDVFTSGRKMRLTCSPNIDAASLKKGQTVRLNEALTVVEAGTFEAVGEISTLREILADGHRALVVGHADEERVVWLADPLIAEDLPDGLPEALNDDTRPRKLRPGDSLLVDTKAGYAFERIPKAEVEDLVLEELVPR | soluble |
| MPSLFKTMAFQLKTERLELSMWEESDSVWLSKLIGERGVDIPAVDSVRNRLIEMRKKADENGISLLTIRRRDEGDFIGYCGLIIGRSTLEEPEIAYELFRSAHGKGYATEAASVVLDAAIATGRQRLWSTVGAWNIASLRVLEKIGFKRHHSTWDDERGEIVWNVRDL | not soluble |
| MPSLQDLYAAFRRIAPYTHRTPLLTSRLLDGLLGKRLLLKAEHLQKTGSFKARGALSKALALENPKGLLAVSSGNHAQGVAYAAQVLGVKALVVMPEDASPYKKACARAYGAEVVDRGVTAKNREEVARALQEETGYALIHPFDDPLVIAGQGTAGLELLAQAGRMGVFPGAVLAPVGGGGLLAGLATAVKALSPTTLVLGVEPEAADDAKRSLEAGRILRLEAPPRTRADGVRTLSLGERTFPILRERVDGILTVSEEALLEAERLLFTRTKQVVEPTGALPLAAVLEHGARLPQTLALLLSGGNRDFSP | soluble |
| MPSNPQQSSRATPDRPSGSDESVIVERIYKAVMEQRLAPKTKLSEARLCETFGVGRMRVRRALLLLSSQGIIELQSNRGAYVACPDTAEANEVFAARMLIEPPLVRQLAQSSGNIDLTILTEHIALEDAARERKERTEIIRLSGEFHTKLAQATGNKFIFRMMRELVTRTSLIVGLFGSSENASCPDDEHNNILKAIQSQDPEMAETLLISHLNHIQNGLDMDMRQVPQDDLAAILGSD | not soluble |
| MPSPTVTSPQVAVNDIGSSEDFLAAIDKTIKYFNDGDIVEGTIVKVDRDEVLLDIGYKTEGVIPARELSIKHDVDPNEVVSVGDEVEALVLTKEDKEGRLILSKKRAQYERAWGTIEALKEKDEAVKGTVIEVVKGGLILDIGLRGFLPASLVEMRRVRDLQPYIGKEIEAKIIELDKNRNNVVLSRRAWLEQTQSEVRSEFLNNLQKGTIRKGVVSSIVNFGAFVDLGGVDGLVHVSELSWKHIDHPSEVVQVGDEVTVEVLDVDMDRERVSLSLKATQEDPWRHFARTHAIGQIVPGKVTKLVPFGAFVRVEEGIEGLVHISELAERHVEVPDQVVAVGDDAMVKVIDIDLERRRISLSLKQANEDYTEEFDPAKYGMADSYDEQGNYIFPEGFDAETNEWLEGFEKQRAEWEARYAEAERRHKMHTAQMEKFAAAETAGRGADDQSSASSAPSEKTAGGSLASDAQLAALREKLAGSALEHHHHHH | not soluble |
| MPSTRCAHQMSTKKKAERVDNMIAFLKSAVQAQKEKGAQAEQAPGNAMMTSKLLEIWSVPQSTITEMRLLLTLGADPTPLFKDDFGEKTLADRIDNGSVCEECAEMYERTPIQINRSKKVDGVMALCLDGGGMRGLVSVVCLLYASRRLLGDETLPNLFDWFIGTSTGSMLALSMVNKISISECFFQYWDMKSQIFLRGSTVKRLLGDQVAVQTKNIDKVLGDCFPTQTLQECPTRLTIPALDISTAPARLHVFRNYSFTKPFGAPLNEDQDVLFREAARASSAAPTYFEPFIYGNKVLVDGSFVANYPLNVLFKEYDSFSKHQQPIHLAGVLSIGTGEPALAERKYKSGKSIRAKAMNIGHLSTLILEQVVGQDLTAVEMAQDRCHAHNIPFNRLSPKGISVRIDQIDDSKLMDMIWTTLIYLTENVHEIDQLGEMIYKLKSDPTERKRRSNTVL | not soluble |
